{"source": "patent US20250163130A1", "about": "“LIGAND GATED ION CHANNELS AND METHODS OF USE” (Trames Bio, Inc., priority 2022, published 2025)", "molecules": {"B1": {"name": "CODA1055: α7-nAChR(Gly-cys) LBD: GlyRα1 IPD, SEQ ID NO: 33 comprising R101W, Y115E, Y210W mutations (protein)", "chain": "MRCSPGGVWLALAASLLHVSLQGEFQRKLYKELVKNYNPLERPVANDSQPLTVYFSLSLLQIMDVDEKNQVLTTNIWLQMSWTDHYLQWNVSEYPGVKTVWFPDGQIWKPDILLENSADERFDATFHTNVLVNSSGHCQYLPPGIFKSSCPMDLKNFPMDVQTCKLKFGSWSYGGWSLDLQMQEADISGYIPNGEWDLVGIPGKRSERFWECCKEPYPDVTFTVTMRRRMGYYLIQMYIPSLLIVILSWISFWINMDAAPARVGLGITTVLTMTTQSSGSRASLPKVSYVKAIDIWMAVCLLFVFSALLEYAAVNFVSRQHKELLRFRRKRRHHKSPMLNLFQEDEAGEGRFNFSAYGMGPACLQAKDGISVKGANNSNTTNPPPAPSKSPEEMRKLFIQRAKKIDKISRIGFPMAFLIFNMFYWIIYKIVRREDVHNQ", "modifications": "synthetic sequence of chimeric LGIC"}, "B2": {"name": "CODA1316: α7-nAChR(Gly-cys) LBD: GlyRα2 IPD, SEQ ID NO: 65 comprising R101W, Y115E, Y210W, T225I mutations (protein)", "chain": "MRCSPGGVWLALAASLLHVSLQGEFQRKLYKELVKNYNPLERPVANDSQPLTVYFSLSLLQIMDVDEKNQVLTTNIWLQMSWTDHYLQWNVSEYPGVKTVWFPDGQIWKPDILLENSADERFDATFHTNVLVNSSGHCQYLPPGIFKSSCPMDLKNFPMDVQTCKLKFGSWSYGGWSLDLQMQEADISGYIPNGEWDLVGIPGKRSERFWECCKEPYPDVTFTVIMRRRMGYYLIQMYIPSLLIVILSWVSFWINMDAAPARVALGITTVLTMTTQSSGSRASLPKVSYVKAIDIWMAVCLLFVFAALLEYAAVNFVSRQHKEFLRLRRRQKRQNKEEDVTRESRFNFSGYGMGHCLQVKDGTAVKATPANPLPQPPKDGDAIKKKFVDRAKRIDTISRAAFPLAFLIFNIFYWITYKIIRHEDVHKK", "modifications": "CHRNA7 (Cys-loop)/GLRA2"}}, "key": {"CODA1237": {"target": "T1, CODA1237 (Homo sapiens, UniProt P36544, F159M/H163T/I152M/R155K/V154L/W156N/Y151P)", "T1 construct": "expressed in transfected cells; host or cells: Lenti-X 293T (LX293T, Clontech) stably expressing mutant YFP (H148Q/I152L) reporter", "T1 sequence (P36544 with tags, fused parts or gaps Y151P/I152M/V154L/R155K/W156N/F159M/H163T)": "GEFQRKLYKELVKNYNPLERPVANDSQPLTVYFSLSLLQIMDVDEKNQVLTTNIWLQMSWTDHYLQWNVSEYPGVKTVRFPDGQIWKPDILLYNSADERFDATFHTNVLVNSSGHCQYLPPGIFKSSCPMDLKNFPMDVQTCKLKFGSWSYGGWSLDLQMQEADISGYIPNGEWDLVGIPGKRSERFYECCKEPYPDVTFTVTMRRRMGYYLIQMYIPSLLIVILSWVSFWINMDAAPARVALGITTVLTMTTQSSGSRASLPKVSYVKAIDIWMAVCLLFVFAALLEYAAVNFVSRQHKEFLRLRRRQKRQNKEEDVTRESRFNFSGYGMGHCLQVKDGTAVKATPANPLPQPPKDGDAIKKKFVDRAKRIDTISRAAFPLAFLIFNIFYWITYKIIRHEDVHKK", "test": "Anion reporter (YFP quench) plate assay, ligand response of cells expressing CODA1237 compared with CODA71", "assay_type": "cell-based", "settings": "FIG. 1, various ligand doses"}, "[1]": {"system": "rat model of neuropathic pain", "test": "Spared nerve injury (SNI) rat model of neuropathic pain, mechanical withdrawal threshold", "assay_type": "in vivo", "settings": "SNI rats injected with AAV.hSYN encoding engineered receptor; repeat IP injection on the third day", "description": "The engineered receptors disclosed herein are assessed for their ability to provide analgesia in a rat model of neuropathic pain following administration of a small molecule ligand. AAV expression cassettes containing a human synapsin-1 (hSYN) promoter linked to polynucleotides encoding either a wild type α7-nAChR, or any one of the engineered chimeric receptors disclosed herein are constructed using standard molecular biology techniques.\nBehavioral experiments and pain models: To produce mechanical hypersensitivity in a model that mimics a neuropathic pain condition, the spared nerve injury (SNI) model (a validated model of mechanical allodynia) is used (Shields et al., 2003, The Journal of Pain, 4, 465-470). This model is produced by the sectioning of the common peroneal and the sural nerves and isolating the tibial branch. Mechanical withdrawal threshold is assessed by placing rats on an elevated wire-mesh grid and stimulating the plantar surface of the hind paw with von Frey filaments.\nEffects of administration: This SNI model is produced by the sectioning of the common peroneal and the sural nerves and isolating the tibial branch of the rat. […] The duration that the rat spends on the rotarod is recorded, with a cut-off at 300 sec. […]"}, "HEK cells [2]": {"system": "HEK cells", "test": "Peak current measurement on IonFlux in HEK cells", "assay_type": "cell-based", "settings": "held at −60 mV", "description": "HEK 293 cells were routinely subcultured in DMEM with 10% fetal bovine serum (ThermoFisher Scientific). Cells were plated in 15 cm dishes 24 hours prior to transfection with Fugene 6 (Promega, E2691) and plasmid DNA (total of 20 μg DNA). 24 hours post transfection, cells were lifted with Accutase (Sigma, A6964) then resuspended in serum free media (CHO—S-SFM II, ThermoFisher Scientific 12052 with 25 mM HEPES, ThermoFisher Scientific, 15630080) to rest for 30-90 min before being loaded onto IonFlux (Fluxion Biosciences) for experiments. Recordings were made in extracellular solution (ECS) containing (in mM): 140 sodium chloride (S7653), 4 potassium chloride (P9333), 1 magnesium chloride (M2670), 2 calcium chloride (C3881), 10 HEPES (54457), and 10 D-(+)-glucose (G7528) (pH=7.3 with sodium hydroxide, osmolarity=305-315 mOsm). Intracellular solution (ICS) contains (in mM): 140 cesium chloride (289329), 5 potassium fluoride (60238), 2 Calcium chloride (P9333), 2 magnesium chloride (M2670), 10 HEPES (54457), and 10 EGTA (3777) (pH=7.2 with cesium hydroxide, osmolarity=290-295 mOsm).\nDrug-induced currents were recorded in ensemble mode (20 cells are patched per recording channel). Cells were held at −60 mV and current across the membrane was recorded at 1 kHz sampling rate. Drugs tested include acetycholine chloride (A6625) and other synthetic compounds. […]"}, "HEK cells [3]": {"system": "HEK cells", "test": "Peak current measurement by manual patch clamp in HEK cells", "assay_type": "cell-based", "settings": "held at −60 mV", "description": "Cell culture: HEK 293 cells were routinely subcultured in DMEM with 10% fetal bovine serum (ThermoFisher Scientific). Cells were plated in six-well dishes 24 hours prior to transfection with Fugene 6 (Promega, E2691) and plasmid DNA (total of 1 μg DNA). 24 hours post transfection, cells were replated onto 10 mm PDL and collagen coated coverslips, before being used for patch clamp experiments 24-48 hours later. For dorsal root ganglion neuron experiments, adult rat lumbar ganglia were harvested and dissociated according to standard protocols, cultured on glass coverslips coated with poly-L-lysine and mouse laminin, transduced on DIV1 with ires-GFP-containing lentiviral or AAV6 vectors, and processed for immunocytochemistry on DIV7. For hippocampal neuron experiments, hippocampi were harvested from embryonic day 18 rat pups or postnatal day 0 mouse pups and dissociated according to standard protocols. […]\nWhole-cell patch clamp recording protocol: Cells plated on coverslips were visualized at 10× and 40× on an inverted fluorescence microscope (Olympus). […] Traces were either analyzed in Clampfit (Molecular Devices) or using custom Python code. […]\nDose-response experiments: Drug-induced currents were recorded in voltage clamp mode. […]"}, "HEK cells [4]": {"system": "HEK cells", "test": "TC-5619 / acetylcholine dose response and peak current of engineered receptors in HEK cells (FIGS. 5C-5F)", "assay_type": "cell-based", "settings": "for Response to TC-5619 (dose response), compared with CODA71: FIGS. 5C-5E"}}}
{"molecule": "c1cnc2c(c1)C[C@@]1(CN3CCC1CC3)O2", "note": "[AZD-0328]", "values": [{"measurement": "Responsiveness (percent quench of YFP fluorescence) of cells expressing CODA1237 compared with cells expressing CODA71", "setting": "CODA1237", "result": "more responsive"}, {"measurement": "Mechanical withdrawal thresholds (up-down method) after IP injection of ligand", "setting": "[1]", "result": "recovery to non-injury baseline thresholds"}]}
{"molecule": "B1", "values": [{"measurement": "Peak Current on IonFlux in HEK Cells", "setting": "HEK cells [2]", "result": "−5074.3 picoamps (pA)"}, {"measurement": "Peak Current on Manual Patch Clamp in HEK cells", "setting": "HEK cells [3]", "result": "−2176.6 picoamps (pA)"}, {"measurement": "Response to acetylcholine (dose response), compared with CODA71", "setting": "HEK cells [4]; FIGS. 5C-5D", "result": "reduced response"}, {"measurement": "Response to TC-5619 (dose response), compared with CODA71", "setting": "HEK cells [4]", "result": "increased response"}]}
{"molecule": "B2", "values": [{"measurement": "Peak Current on IonFlux in HEK Cells", "setting": "HEK cells [2]", "result": "−5520.5 picoamps (pA)"}, {"measurement": "Peak Current on Manual Patch Clamp in HEK cells", "setting": "HEK cells [3]", "result": "−2779 picoamps (pA)"}, {"measurement": "Peak current when activated by TC-5619, compared with CODA1055", "setting": "HEK cells [4]; FIG. 5F", "result": "increased peak current"}, {"measurement": "Response to TC-5619 (dose response), compared with CODA71", "setting": "HEK cells [4]", "result": "increased response"}]}
